Assays:
[1] = molecular target: T1, hMRP5-Δ1-94-8xHis (human, UniProt O15440 95-1437, RED-tris-NTA 2nd Generation dye on the His tag); assay: MST; digitonin-purified hMRP5-Δ1-94-8xHis labelled with RED-tris-NTA 2nd Generation dye; serially diluted peptides; 15 min at room temperature; HEPES buffer; 3% LED/excitation power, medium MST power (Monolith NT); details: both partners purified
T1 construct: human multidrug resistance protein 5 (MRP5, ABCC5), UniProt O15440, without the flexible N-terminal region Met1-Thr94; Plasmids and primers are in Supplementary Data 1 and 2; source: HEK293F, transfected; digitonin-purified (HEPES buffer instead of Tris)
T1 sequence (O15440 95-1437, stated change not applied): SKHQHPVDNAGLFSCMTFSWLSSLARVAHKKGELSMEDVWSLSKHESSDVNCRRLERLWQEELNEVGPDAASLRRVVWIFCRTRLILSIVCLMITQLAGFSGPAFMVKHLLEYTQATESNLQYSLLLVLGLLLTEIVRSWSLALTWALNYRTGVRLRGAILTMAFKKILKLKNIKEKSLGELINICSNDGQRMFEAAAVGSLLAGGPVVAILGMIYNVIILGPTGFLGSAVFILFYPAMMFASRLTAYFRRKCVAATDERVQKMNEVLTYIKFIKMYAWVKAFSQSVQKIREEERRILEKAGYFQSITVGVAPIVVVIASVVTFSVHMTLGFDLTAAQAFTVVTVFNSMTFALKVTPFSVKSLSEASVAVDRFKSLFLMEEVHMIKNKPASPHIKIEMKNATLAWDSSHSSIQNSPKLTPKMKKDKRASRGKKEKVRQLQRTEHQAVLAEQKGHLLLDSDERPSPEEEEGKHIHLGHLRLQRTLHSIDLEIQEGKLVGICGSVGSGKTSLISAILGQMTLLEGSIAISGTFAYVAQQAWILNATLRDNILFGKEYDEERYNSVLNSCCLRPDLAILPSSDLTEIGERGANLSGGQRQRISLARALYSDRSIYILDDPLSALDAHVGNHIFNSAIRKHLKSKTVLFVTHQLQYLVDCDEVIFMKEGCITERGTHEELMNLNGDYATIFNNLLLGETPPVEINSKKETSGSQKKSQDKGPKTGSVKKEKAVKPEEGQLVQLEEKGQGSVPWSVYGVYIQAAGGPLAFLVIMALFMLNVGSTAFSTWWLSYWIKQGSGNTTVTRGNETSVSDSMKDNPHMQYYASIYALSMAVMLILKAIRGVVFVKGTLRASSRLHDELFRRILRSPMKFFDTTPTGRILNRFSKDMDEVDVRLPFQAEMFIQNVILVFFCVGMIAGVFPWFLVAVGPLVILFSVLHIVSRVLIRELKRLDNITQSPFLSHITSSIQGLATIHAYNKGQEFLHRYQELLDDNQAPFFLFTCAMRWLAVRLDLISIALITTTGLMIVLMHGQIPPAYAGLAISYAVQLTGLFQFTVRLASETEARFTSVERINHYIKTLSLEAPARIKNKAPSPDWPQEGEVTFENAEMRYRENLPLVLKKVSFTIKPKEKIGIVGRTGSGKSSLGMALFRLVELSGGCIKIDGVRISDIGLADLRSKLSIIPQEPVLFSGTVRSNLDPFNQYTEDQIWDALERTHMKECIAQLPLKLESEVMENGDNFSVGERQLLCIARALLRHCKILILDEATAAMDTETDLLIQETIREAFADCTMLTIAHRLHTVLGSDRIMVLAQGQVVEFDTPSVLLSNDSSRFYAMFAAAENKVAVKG

[2] = molecular target: T2, hMRP5-Δ1-94 (human, UniProt O15440 95-1437); assay: cryo-EM structure; peptide M5PI and hMRP5-Δ1-94 incubated on ice at a ratio of 2:1 for 1 h before vitrification; digitonin; details: both partners purified
T2 construct: human multidrug resistance protein 5 (MRP5, ABCC5), UniProt O15440, without the flexible N-terminal region Met1-Thr94; This is the construct used for cryo-EM; Plasmids and primers are in Supplementary Data 1 and 2; also called hMRP5-Δ1-94 truncation mutant; apo form; source: HEK293F, transfected, purified (strep-Tactin, SEC on Superose 6 Increase, digitonin)
T2 sequence (O15440 95-1437, stated change not applied): as above

binding result [1]: binds
binding result [2]: binds
B1: MRP5 potential peptide inhibitor (M5PI) (peptide, UniProt O15440 35-75, looked up)
peptide: CSKFRRTRPLECQDALETAARAEGLSLDASMHSQLRILDEC
notes: stretch 35-75 of the N-terminal loop of human MRP5 (UniProt O15440) with both terminal residues replaced by cysteine; The cysteines were meant for cyclisation; also called D35C-E75C; Asp35Cys-Glu75Cys; source: synthetic peptide (GL Biochem, Shanghai)
